Each block holds one compound with its values, some of them ahead of it.
What was measured:
[1] = target: calcitonin receptor (UniProt P30988)
[2] = target: calcitonin receptor, endogenous in MCF-7 cells (human (endogenous in MCF-7)) (UniProt P30988)
[3] = test system: class B GPCRs; assay: Signaling of class B GPCRs tested (summary over receptors); format: cell-based; conditions: CMP in place of ATP
Procedure: Cells were treated with IBMX (200–500 μM) and were further incubated for 20 minutes at room temperature. […] The emitted luminescence was measured at room temperature with a 1-second integration time at 1.5-minute intervals for a total of 45 minutes.
Data shown are means ± SEM.
To assess the time-to-maximum-slope (ie, “lag time”) for each time-course curve, we determined the time elapsed from the addition of agonist (time 0) to the first data point of the maximum slope. This procedure is illustrated in Supplemental Fig. 1.

[4] = target: T1, VPAC2R (Homo sapiens, UniProt P41587); assay: Live cell cAMP accumulation (GloSensor), COS-7 cells transfected with VPAC2R; format: cell-based; conditions: VIP + vehicle, Fig. 6H, VPAC2R, fraction of greatest slope, ± SEM, n = 3-5
T1 construct: host or cells: COS-7
T1 sequence (P41587 24-438): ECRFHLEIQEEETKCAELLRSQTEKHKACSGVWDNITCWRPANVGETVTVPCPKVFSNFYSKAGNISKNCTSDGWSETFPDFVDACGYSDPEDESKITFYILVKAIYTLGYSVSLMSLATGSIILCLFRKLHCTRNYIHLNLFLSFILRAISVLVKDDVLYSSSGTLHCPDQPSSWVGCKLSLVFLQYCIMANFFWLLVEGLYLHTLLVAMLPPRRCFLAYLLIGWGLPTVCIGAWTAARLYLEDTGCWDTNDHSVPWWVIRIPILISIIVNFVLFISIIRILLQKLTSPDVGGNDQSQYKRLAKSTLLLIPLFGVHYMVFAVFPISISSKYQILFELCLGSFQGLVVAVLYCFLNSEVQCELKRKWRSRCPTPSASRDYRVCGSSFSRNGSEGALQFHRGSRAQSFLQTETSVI

−LogEC50 of calcitonin, maximum rate of cAMP accumulation (GloSensor), COS-7 cells transfected with calcitonin receptor, vehicle (Fig. 1F) (−LogEC50 (EC50 in M)) [1]: 9.64 | −LogEC50 of calcitonin, maximum rate of cAMP accumulation (GloSensor), COS-7 cells transfected with calcitonin receptor, with ATP 1.5 mM (Fig. 1F) (−LogEC50 (EC50 in M)) [1]: 10.5 | −LogEC50 of calcitonin, maximum rate of cAMP accumulation (GloSensor), UMR-106 cells transfected with calcitonin receptor, vehicle (Fig. 1B) (−LogEC50 (EC50 in M)) [1]: 9.15 | −LogEC50 of calcitonin, maximum rate of cAMP accumulation (GloSensor), UMR-106 cells transfected with calcitonin receptor, with ATP 1.5 mM (Fig. 1B) (−LogEC50 (EC50 in M)) [1]: 10.3 | −LogEC50 of calcitonin, maximum rate of cAMP accumulation (GloSensor), MCF-7 cells (endogenous calcitonin receptor), vehicle (Fig. 1D) (−LogEC50 (EC50 in M)) [2]: 8.19 | −LogEC50 of calcitonin, maximum rate of cAMP accumulation (GloSensor), MCF-7 cells (endogenous calcitonin receptor), with ATP 1.5 mM (Fig. 1D) (−LogEC50 (EC50 in M)) [2]: 9.86
Compound: Salmon calcitonin (peptide)

Compound: Nc1ccn([C@@H]2O[C@H](COP(=O)(O)O)[C@@H](O)[C@H]2O)c(=O)n1 [CMP, cytidine 5'-monophosphate]
enhancing effect of ATP [3]: mimicked

Compound: CC[C@H](C)[C@H](NC(=O)[C@H](CO)NC(=O)[C@H](CC(N)=O)NC(=O)[C@H](CC(C)C)NC(=O)[C@H](Cc1ccc(O)cc1)NC(=O)[C@H](CCCCN)NC(=O)[C@H](CCCCN)NC(=O)[C@@H](NC(=O)[C@H](C)NC(=O)[C@H](CCSC)NC(=O)[C@H](CCC(N)=O)NC(=O)[C@H](CCCCN)NC(=O)[C@H](CCCNC(=N)N)NC(=O)[C@H](CC(C)C)NC(=O)[C@H](CCCNC(=N)N)NC(=O)[C@@H](NC(=O)[C@H](Cc1ccc(O)cc1)NC(=O)[C@H](CC(N)=O)NC(=O)[C@H](CC(=O)O)NC(=O)[C@@H](NC(=O)[C@H](Cc1ccccc1)NC(=O)[C@@H](NC(=O)[C@H](C)NC(=O)[C@H](CC(=O)O)NC(=O)[C@H](CO)NC(=O)[C@@H](N)Cc1c[nH]cn1)C(C)C)[C@@H](C)O)[C@@H](C)O)C(C)C)C(=O)N[C@@H](CC(C)C)C(=O)N[C@@H](CC(N)=O)C(N)=O [VIP, vasoactive intestinal peptide]
Normalized Maximum [4]: 0.94 ± 0.01

— publication PMC12264551 (Molecular Pharmacology, 2025)
